The chains are these.
B1: IL6R-2B002/IL6R-L (antibody, human IgG1, kappa, name in EU numbering)
heavy: QVQLQESGPGLVKPSETLSLTCAVSGHSISHDHAWSWVRQPPGEGLEWIGFISYSGITNYNPSLQGRVTISRDNSKNTLYLQMNSLRAEDTAVYYCARSLARTTAMDYWGEGTLVTVSSASTKGPSVFPLAPSSKSTSGGTAALGCLVKDYFPEPVTVSWNSGALTSGVHTFPAVLQSSGLYSLSSVVTVPSSSLGTQTYICNVNHKPSNTKVDKKVEPKSCDKTHTCPPCPAPDLLGGDSVFLFPPKPKDTLMISRTPEVTCVVVDVSHEDPEVKFNWYVDGVEVHNAKTKPREEQYNSTYRVVSVLTVLHQDWLNGKEYKCKVSNKALPAPIEKTISKAKGQPREPQVYTLPPSRDELTKNQVSLTCLVKGFYPSDIAVEWESNGQPENNYKTTPPVLDSDGSFFLYSKLTVDKSRWQQGNVFSCSVMHEALHNHYTQESLSLSP
light: not shown
notes: Alterations introduced into IL6R-B3; also called P238D/E233D; copies: 2 + 2
B2: IL6R-2B128/IL6R-L (antibody, human IgG1, kappa, name in EU numbering)
heavy: QVQLQESGPGLVKPSETLSLTCAVSGHSISHDHAWSWVRQPPGEGLEWIGFISYSGITNYNPSLQGRVTISRDNSKNTLYLQMNSLRAEDTAVYYCARSLARTTAMDYWGEGTLVTVSSASTKGPSVFPLAPSSKSTSGGTAALGCLVKDYFPEPVTVSWNSGALTSGVHTFPAVLQSSGLYSLSSVVTVPSSSLGTQTYICNVNHKPSNTKVDKKVEPKSCDKTHTCPPCPAPELLGGDSVFLFPPKPKDTLMISRTPEVTCVVVDVSHEDPEVKFNWYVDGVEVHNAKTKPREEQDNSTYRVVSVLTVLHQDWLNGKEYKCKVSNKALPAPIEKTISKAKGQPREPQVYTLPPSRDELTKNQVSLTCLVKGFYPSDIAVEWESNGQPENNYKTTPPVLDSDGSFFLYSKLTVDKSRWQQGNVFSCSVMHEALHNHYTQESLSLSP
light: not shown
notes: Alterations introduced into IL6R-B3; also called P238D/Y296D; copies: 2 + 2
B3: IL6R-2B171/IL6R-L (antibody, human IgG1, kappa, name in EU numbering)
heavy: QVQLQESGPGLVKPSETLSLTCAVSGHSISHDHAWSWVRQPPGEGLEWIGFISYSGITNYNPSLQGRVTISRDNSKNTLYLQMNSLRAEDTAVYYCARSLARTTAMDYWGEGTLVTVSSASTKGPSVFPLAPSSKSTSGGTAALGCLVKDYFPEPVTVSWNSGALTSGVHTFPAVLQSSGLYSLSSVVTVPSSSLGTQTYICNVNHKPSNTKVDKKVEPKSCDKTHTCPPCPAPELLGGDSVFLFPPKPKDTLMISRTPEVTCVVVDVSHEDPEVKFNWYVDGVEVHNAKTKPREEQYNSTYRVVSVLTVLHQDWLNGKEYKCKLSNKALPAPIEKTISKAKGQPREPQVYTLPPSRDELTKNQVSLTCLVKGFYPSDIAVEWESNGQPENNYKTTPPVLDSDGSFFLYSKLTVDKSRWQQGNVFSCSVMHEALHNHYTQESLSLSP
light: not shown
notes: Alterations introduced into IL6R-B3; also called P238D/V323L; copies: 2 + 2
B4: IL6R-2B169/IL6R-L (antibody, human IgG1, kappa, name in EU numbering)
heavy: QVQLQESGPGLVKPSETLSLTCAVSGHSISHDHAWSWVRQPPGEGLEWIGFISYSGITNYNPSLQGRVTISRDNSKNTLYLQMNSLRAEDTAVYYCARSLARTTAMDYWGEGTLVTVSSASTKGPSVFPLAPSSKSTSGGTAALGCLVKDYFPEPVTVSWNSGALTSGVHTFPAVLQSSGLYSLSSVVTVPSSSLGTQTYICNVNHKPSNTKVDKKVEPKSCDKTHTCPPCPAPELLGGDSVFLFPPKPKDTLMISRTPEVTCVVVDVSHEDPEVKFNWYVDGVEVHNAKTKPREEQYNSTYRVVSVLTVLHQDWLNGKEYKCKISNKALPAPIEKTISKAKGQPREPQVYTLPPSRDELTKNQVSLTCLVKGFYPSDIAVEWESNGQPENNYKTTPPVLDSDGSFFLYSKLTVDKSRWQQGNVFSCSVMHEALHNHYTQESLSLSP
light: not shown
notes: Alterations introduced into IL6R-B3; also called P238D/V323I; copies: 2 + 2
B5: IL6R-2B172/IL6R-L (antibody, human IgG1, kappa, name in EU numbering)
heavy: QVQLQESGPGLVKPSETLSLTCAVSGHSISHDHAWSWVRQPPGEGLEWIGFISYSGITNYNPSLQGRVTISRDNSKNTLYLQMNSLRAEDTAVYYCARSLARTTAMDYWGEGTLVTVSSASTKGPSVFPLAPSSKSTSGGTAALGCLVKDYFPEPVTVSWNSGALTSGVHTFPAVLQSSGLYSLSSVVTVPSSSLGTQTYICNVNHKPSNTKVDKKVEPKSCDKTHTCPPCPAPELLGGDSVFLFPPKPKDTLMISRTPEVTCVVVDVSHEDPEVKFNWYVDGVEVHNAKTKPREEQYNSTYRVVSVLTVLHQDWLNGKEYKCKMSNKALPAPIEKTISKAKGQPREPQVYTLPPSRDELTKNQVSLTCLVKGFYPSDIAVEWESNGQPENNYKTTPPVLDSDGSFFLYSKLTVDKSRWQQGNVFSCSVMHEALHNHYTQESLSLSP
light: not shown
notes: Alterations introduced into IL6R-B3; also called P238D/V323M; copies: 2 + 2

T1 sequence (P08637 other isoform, or with tags, fused parts or gaps): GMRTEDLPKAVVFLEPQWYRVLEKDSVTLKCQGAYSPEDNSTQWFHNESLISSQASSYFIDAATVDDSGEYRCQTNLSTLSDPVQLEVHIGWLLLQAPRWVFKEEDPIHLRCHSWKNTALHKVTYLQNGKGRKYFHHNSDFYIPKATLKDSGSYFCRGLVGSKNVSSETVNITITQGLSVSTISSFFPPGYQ

The assay addresses T1, human FcγRIIIa type V (allotype V158) extracellular domain with C-terminal His tag (human, UniProt P08637 17-208).
T1 construct: also called FcγRIIIaV
As to the kind of experiment: SPR (Biacore), antibody captured, FcγR analyte.
Usually Kd stands for the free concentration of one partner at which half of the binding sites on the other are occupied at equilibrium, for simple one-to-one binding. Low readings indicate higher affinity, high ones lower affinity. Molecule B1 returned a Kd of 53 µM. For the molecule B2, the affinity, expressed as Kd, was 72 µM. The molecule B3 yielded a Kd of 57 µM. With B4, the Kd is 75 µM. Turning to B5, the Kd was 48 µM.

These data come from patent US20240279325A1 (Chugai, published 2024).
